Data reported in patent US20040115188A1, “Enzyme with proteolytic activity” (priority 2000, published 2004).
“Also recorded” adds a separate entry of the source.

B1: Pra1: enzyme derived from T. harzianum with proteolytic activity, trypsin type serine-endopeptidase, amino acid sequence SEQ. ID. NO.: 1 (protein, listed as Trichoderma harzianum)
chain: MAPVLAIASVLAALPALTMGAAITPRGSDIVGGTTAALGEFPYIVSLSTGGSHFCGGVLIDSRTVVTAGHCTIDQRASSVKVRAGTLTWASGGTQVGVSSLTLHPSYTVDSQGVPDNDVGVWHLATAIPTSSTIGYATLPASGSDPAAGTTLTVAGWGTTSENSNSLPSTLRKVSVPVVARATCDSDYDGEISNNMFCAAVAAGGKDSCSGDSGGPIIDPSGTLVGVVSWGQGCAERGFPGVYTRLGNYVSFINSNRG

What was measured:
Pra1 = assay: Inhibition of proteolytic activity of Pra1 by specific inhibitors; format: biochemical, T. harzianum; conditions: 1 mM inhibitor, preincubation 30 minutes at 30° C., pH 7.5
Description: In order to determine the catalytic type to which Pra1 belongs, specific inhibitors were used of the different known catalytic mechanisms. The effect of said inhibitors on the activity of Pra1 was analysed by preincubating the enzymatic solution for 30 minutes at 30° C. in 100 mM phosphate buffer pH 7.5 with said specific inhibitors of different known catalytic mechanisms:
1 mM PMSF (100 mM initial solution in isopropanol),
1 mM EDTA (100 mM initial solution in water),
0.1 mM Pepstatin (10 mM initial solution in DMSO),
1 mM Iodoacetamide (100 mM initial solution in water, prepared at the time of use).
In parallel to the enzymatic assay, controls were also performed in the presence of organic solvent in which the inhibitor was dissolved. The residual activity was determined by the percentage of activity in absence of inhibitor.

[1] = Endopeptidase activity on synthetic peptide substrate for trypsins; format: biochemical; conditions: optimum conditions of activity (30° C. and pH 7.5); 1 U = 1 nmol p-NA per minute
Description: (§1) Taking into account the information obtained in Example 3.2, the endopeptidase activity of Pra1 on 3 synthetic peptides (Sigma) is assayed with the amino and carboxyl terminals blocked, with allows the different types of activities to be differentiated within the S1 family of peptidases:
N-acetyl-Ile-Glu-Ala-Arg-pNA (Arg-pNA) for trypsins,
(§2) The enzymatic solution (75 ng) was prepared in 90 μl of 100 mM sodium phosphate buffer and preincubated for 5 minutes at 30° C. The reactions were initiated by addition of 10 μl of preheated 10 mM substrate solution (prepared from 100 mM solutions in DMSO stored at −20° C.). After 20 minutes of incubation, the reactions were stopped by addition of 50 μl of 2% (v/v) acetic acid. Then, the absorbance of 100 μl at 405 nm was measured in microtitre plates with 96 wells (Inmunoplate Maxisorp, NUNC) using a Titertek Multiskan Plus 311 A0 (Flow Laboratories) automatic reader, and the nmoles of p-nitroaniline (p-NA) released per minute were calculated. In parallel, enzyme blanks with no substrate and substrate without enzyme were also processed. The standard calibration line was constructed with solutions of para-nitroanaline (p-NA) (Sigma) at known concentrations (0-1.25 mM) prepared from an initial 5 mM solution. This solution was prepared by dissolving p-NA beforehand in a minimum volume of ethanol.

[2] = Endopeptidase activity on synthetic peptide substrate for elastases; format: biochemical; conditions: 1 mM substrate, 30° C., 20 minutes
Description: as §1
N-succinyl-Ala-Ala-Pro-Leu-pNA (Leu-pNA) for elastases, and
as §2

[3] = Endopeptidase activity on synthetic peptide substrate for chymotrypsins/subtilisins; format: biochemical; conditions: 1 mM substrate, 30° C., 20 minutes
Description: as §1
N-succinyl-Ala-Ala-Pro-Phe-pNA (Phe-pNA) for chymotrypsins/subtilisins (this latter belongs to the S8 family).
as §2, with “This solution was prepared by dissolving p-NA beforehand in a minimum volume of ethanol.” left out

[4] = Determination of kinetic parameters Km, Kcat, Kcat/Km (Lineweaver-Burk); format: biochemical; conditions: Arg-pNA 0.05-2 mM, 30° C., pH 7.5
Description: The determination of the kinetic parameters Km, Kcat, and Kcat/Km was performed from the initial rates calculated in assays with different concentrations of substrate (0.05-2 mM). For this, the substrate was prepared in 0.99 ml of 100 mM sodium phosphate buffer pH 7.5 and preincubated at 30° C. Then the reaction was started by the addition of 10 μl of the purified proteases Pra1 (2.5 ppm) preheated to the same temperature. The activity was monitored for 10 minutes in a Shimadzu UV-160A spectrophotometer at 405 nm kept at 30 ? C by a thermostatA unit of activity represented the release of one 1 nmol of p-NA per minute in the assay conditions. Solutions of enzymes without substrate, and substrate without enzyme were prepared as blanks. The standard calibration curve was constructed with solutions of p-NA (Sigma) at known concentrations (0-200 μM), prepared as indicated above. The kinetic parameters were calculated from representations of double reciprocals or by Lineweaver-Burk (1/V vs 1/S).

[5] = Effect of temperature on the activity of Pra1; format: biochemical
Description: In order to determine the optimum temperature for activity of Pra1, the enzymatic assay was performed over a range of temperatures comprised between 30° C. and 85° C. The effect of temperature on the stability of Pra1 was determined by preincubating the enzymatic solution in 100 mM sodium phosphate buffer pH 7.5 for 20 minutes at different temperatures (30-85° C.). The substrate used in these assays was the synthetic peptide N-acetyl-Ile-Glu-Ala-Arg-pNA, specific for trypsins.

[6] = Effect of pH on the activity of Pra1; format: biochemical
Description: (§3) For the determination of the optimum pH for activity of Pra1, the assay was carried out in the following buffer systems: 100 mM sodium acetate (pH 3-5.5), 100 mM sodium phosphate (pH 6-7), and 100 mM Tris/HCl (pH 7.5-9). The effect of pH on the stability of Pra1 was determined by pre-incubating the enzymatic solution (750 ng) for 24 hours at 4° C. in […] of the aforementioned buffers. Then, aliquots of 10 μl were taken for performing the assay in standard conditions.

[7] = format: physicochemical; conditions: preincubation 24 hours at 4° C.
Description: as §3
The activity decreased as the pH of preincubation increased, with a reduction of 40% at pH 7.

[8] = Isoelectric point by chromatofocussing; format: physicochemical; conditions: observed
Description: The purification of enzymes with proteolytic activity obtained from the protocol described in Example 1 was performed from the culture filtrate of T. harzianum CECT 2413 kept for 48 hours in a MM medium with cell walls of C. acutatum as the carbon source. To do this, 2 ml of filtrate dialysed and concentrated 75 times were submitted to chromatofocussing to separate proteins on the basis of their isoelectric point. The elution profiles obtained show two peaks of proteolytic activity on azocasein, one eluted at basic pH, coinciding with the main protein peak, and another at acid pH.

Row | Molecule | effect on the lytic activity of Pra1 (Pra1) | specific activity on Arg-pNA [1] | lytic activity on Leu-pNA (elastase activity) [2] | lytic activity on Phe-pNA (chymotrypsin/subtilisin activity) [3] | Kcat [4] [s⁻¹] | Km [4] [µM] | activity at 30° C. ([5]; 30° C.) [%] | activity at 45° C. ([5]; 45° C.) [%] | activity above 55° C. ([5]; above 55° C.) | optimum temperature for activity ([5]; pH 7.5) [°C] | optimum pH for activity [6] | activity in buffers with pH greater than 8.5 or less than 6.5 ([6]; pH greater than 8.5 or less than 6.5) | reduction of activity after preincubation at pH 7 ([7]; pH 7) [%] | proteolytic activity after preincubation at pH 9 ([7]; pH 9) | isoelectric point (Ip) [8]
1 | O=S(=O)(F)Cc1ccccc1 [PMSF] | drastically inhibited | – | – | – | – | – | – | – | – | – | – | – | – | – | –
2 | NC(=O)CI [iodoacetamide, Iodoacetamide] | weak effect | – | – | – | – | – | – | – | – | – | – | – | – | – | –
3 | B1 | – | 94,800 U/mg | No lytic activity; also recorded: does not have activity | No lytic activity; also recorded: does not have activity | 39.64 | 220 | 95 | 16 | no activity was detected | ~35 | 7.5 | decreased rapidly | 40 | No proteolytic activity was detected | 4.7-4.9
